Source: US9180187B2, “Medicament for treating and/or preventing cancer” (TORAY INDUSTRIES, INC., priority 2010, dated 2015)

Assays:
[1] = system: MCF-7 human breast cancer cell line; experiment: In vivo combination therapy in tumor-bearing nude mice transplanted with MCF-7; conditions: experimental section 2 (anti-CAPRIN-1 antibody = #9, 5 mg/kg i.p.), day 26, mouse PBMC given to all groups
Protocol: IgG2b (R&D systems, catalog No. MAB11291)) were administered in combination, a group to which an antitumor agent and anti-CAPRIN-1 monoclonal antibody were administered in combination, and a group to which control (PBS(−) was administered. In addition, mouse PBMC was administered to all the administration groups. […] PBMC separated from Balb/c mouse spleen was intravenously administered to each mouse at 1×10^7 cells/0.2 mL (RPMI1640) on days 0, 8, and 15 after the start of the experiment. […] PBMC separated from Balb/c mouse spleen was intravenously administered to each mouse at 1×10^7 cells/0.2 mL (RPMI1640) on days 0, 8, and 15 after the start of the experiment. Paclitaxel was intraperitoneally administered to each of 5 tumor-bearing mice at 15 mg/kg/shot on days 0 and 3 after the start of the experiment. PBMC separated from Balb/c mouse spleen was intravenously administered to each mouse at 1×10^7 cells/0.2 mL (RPMI1640) on days 0, 8, and 15 after the start of the experiment. Docetaxel was intraperitoneally administered to each of 5 tumor-bearing mice at 10 mg/kg/shot on days 0 and 3 after the start of the experiment. PBMC separated from Balb/c mouse spleen was intravenously administered to each mouse at 1×10^7 cells/0.2 mL (RPMI1640) on days 0, 8, and 15 after the start of the experiment. […]

CAPRIN-1 protein = experiment: Flow cytometry: expression of CAPRIN-1 protein on the cell surface of MCF-7 treated with antitumor agents; type: cell-based, human; conditions: 1 μg antibody
Protocol: The cancer cell line MCF-7 was treated with each antitumor agent at a 50% inhibitory concentration which was calculated in (1) above, and the expression behavior of a CAPRIN-1 protein on the cell surface was examined.
The expression behavior of the CAPRIN-1 protein on the surface of the above-treated MCF-7 human breast cancer cell was examined. The cell was prepared to a concentration of 1×10^5 cells/ml, and then cultured on a 6-well plate under conditions of 37° C. and 5% CO2 for 1 day. Next, the cell was treated with antitumor agents at the 50% inhibitory concentration calculated in (1) above, or with PBS(−) as a control, and then cultured under conditions of 37° C. and 5% CO2 for 2 days. […] After washing with PBS, fluorescence intensity was measured using a FACS caliber (Becton, Dickinson and Company). […] As a result, no significant difference in fluorescence intensity was observed regardless of treatment with an antitumor agent. Specifically, the fluorescence intensity obtained in the case of adding the anti-CAPRIN-1 antibody to MCF-7 not treated with any antitumor agent indicated 32% higher enhancement when compared with that in the case of adding the control antibody. […] Here, the percentage of enhancement in fluorescence intensity was represented by the percentage of increase in mean fluorescence intensity (MFI level) in each cell and calculated by the following formula. […]

B1: monoclonal antibody #9: mouse anti-CAPRIN-1 monoclonal antibody; heavy chain variable region SEQ ID NO: 103, light chain variable region SEQ ID NO: 107 (antibody, listed as Mus musculus, V domains shown)
VH: PRASLGVSETLLCTSGFTFTDYYMSWVRQPPGKALEWLGFIRNKANGYTTEYSASVKGRFTISRDNSQSILYLQMNTLRAEDSATYYCARANWAFDYWGQGTTVTVSSK
VL: SGDRVSLSCRASQSISNYLHWYQQKSHESPRLLIKYASQSISGIPSRFSGSGSGTDFTLSINSVETEDFGMYFCQQSNSWPYTFGGGTKLEIKQ
tumor volume relative to PBS(−) control group designated at 100% [1]: about 45% | percentage of enhancement in fluorescence intensity versus control antibody (CAPRIN-1 protein; MCF-7 not treated with any antitumor agent): 32% | percentage of enhancement in fluorescence intensity versus control antibody (CAPRIN-1 protein; MCF-7 treated with the antitumor agent at 50% inhibitory concentration for 2 days): 32%
